Like-named read-outs stand apart in the source and are kept apart here.

Among the data in patent US20180142222 are binding values, retold here.

Series [1] has as its target Cas9HNH (Cy3/Cy5-labelled reporter Cas9; dCas9HNH for binding data) C80S,C574S,S355C,S867C (Streptococcus pyogenes) (UniProt Q99ZW2). The conditions noted are these: direct binding assay estimate.
Series [2] addresses Cas9hinge (Cy3/Cy5-labelled reporter Cas9) C80S,C574S,D435C,E945C (Streptococcus pyogenes) (UniProt Q99ZW2). To be noted: bound but (ratio)A indistinguishable from apo.

Take “full-length sgRNA ; PAM-distal mismatch DNA”: in series [1] ((ratio)A falls with mismatch number, dCas9 gives stable footprint on these substrates), the binding was greater than 89 % bound.
For full-length sgRNA ; on-target DNA, in series [1] (large FRET increase on target DNA), the binding was greater than 89 % bound.
Regarding sgRNA delta-spacer1-20, the binding in series [2] is greater than 95 % bound.
